The source of these data is publication PMC6002714, “Bovine Herpesvirus 1 UL49.5 Interacts with gM and VP22 To Ensure Virus Cell-to-Cell Spread and Virion Incorporation: Novel Role for VP22 in gM-Independent UL49.5 Virion Incorporation” (Journal of Virology, 2018).

The series deals with the molecule itself. Briefly: non-reducing SDS-PAGE with immunoblot; lysates of virus-infected MDBK cells separated by SDS-PAGE without DTT (compared with +DTT), immunoblotted with anti-UL49.5 or anti-gM; shows only covalently (disulfide) linked complexes.

B1: BHV-1 envelope glycoprotein M (gM) (natural protein)
chain: MAGSAQPAAVHWRLWLAQVGVFAALALLLLITLIGAASPGAGLPCFYAAIVNYNARNLSADGGAWAQRELGARHPALFLETPTTAAFSAYTAVVLLAVAAFDVAAAIIIRRENSGGFAAAYHMNALATLATPPGALLLGALAAWTLQAAVLLLSHKIMVLAAATYLAHAGAAAAFVGLFCTAGLPGAEYAQAVHALRERSPRAHRLLGPGRAVMINLAGGLLALIIGTAPLMLGQLLGAGLGLSLAQTVVAGVTVFCLAAVLFLVLTELVLSRYTQVLPGPAFGTLVAASCIAVASHDYFHQLRGVVRTQAPGLPLGVKLALAGVALLAVAMLVLRLVRACLHHRRKGSAFYGHVSAARQQAARYIARARSSRGMAPLEGDAAALLDRGVASDDEEAVYEADARPARQPYR
notes: glycoprotein M of bovine herpesvirus type 1, encoded by the UL10 gene; gM open reading frame nt 84816 to 86051 of GenBank JX898220 (complementary strand; residues up to 411); expressed from the viral genome; 36-kDa immature, EndoH-sensitive gM in infections with the C42S mutants; also called 43-kDa mature gM; 36-kDa immature gM; source: BHV-1 wt or UL49.5 mutant virus-infected MDBK cells, in …
With B1, the “stoichiometry N” value worked out at 2.
